We go through 2 molecules from article PMC11840787, “Detection of an Intermediate in the Unfolding Process of the N-Terminal Domain of TDP-43” (ACS Omega, 2025).

The target in series [1] is TDP-43 NTD (Homo sapiens) (UniProt Q13148). The following applies: cited from earlier work.
For series [2], the target named is TDP-43 (oligomer, isodesmic) NTD (Homo sapiens) (UniProt Q13148). The note with it: cited from earlier work.
Series [3] deals with the molecule itself. In words: dynamic light scattering; 0.5 mg/mL (45 uM) protein in 4.5 M urea, DH recorded every 5 s, linear fit extrapolated to 0 s (unfolding intermediate).

With TDP-43 NTD (from UniProt Q13148), the Kd (usually a measure of binding affinity in units of concentration) in series [1] was 2.4 µM; in series [2], 40 µM.

B1: TDP-43 NTD (N-terminal domain of TAR DNA-binding protein 43), noncleaved, 99 residues (domain or fragment, UniProt Q13148 1-77, looked up)
chain: MSEYIRVTEDENDEPIEIPSEDDGTVLLSTVTAQFPGACGLRYRNPVSQCMRGVRLVEGILHAPDAGWGNLVYVVNY
notes: 99 residues in all with the 22-residue N-terminal tag, 11,081.29 Da; A cleaved 78-residue variant was used only for fluorescence kinetics, not for any test of the oligomeric state; also called noncleaved TDP-43 NTD; source: purified
Regarding B1, the stoichiometry N (commonly the number of molecules, sites or subunits per partner or assembly) in series [3] was 2.
